Results as given in patent publication US12295987B2, “Method of using a GIP/GLP1 co-agonist for diabetes” (Eli Lilly and Company, priority 2018, dated 2025).
Numbered stars: 1 amine (or outer) side, 2 acyl side, 3 side chain; on linkers, the order of the positions; unused ones are H or OH. Square brackets hold non-standard residues; d marks the D form. Side chains are listed from the residue outwards. Ends that are not written are not given here. * marks the point of attachment. C20 diacid = O=C(O)CCCCCCCCCCCCCCCCCCC(=O)*; γGlu = O=C(O)[C@H](CCC(=O)[*:2])N[*:1]; AEEA = NCCOCCOCC(=O)O; Aib = CC(C)(N)C(=O)O

target: T1, human gastric inhibitory peptide receptor (hGIPR) (Homo sapiens, UniProt P48546); test: cAMP pharmacological functional assay in presence of 0.1% casein, hGIPR; format: cell-based; details: ratio of hGIPR to hGLP1R cAMP EC50 ratios
T1 construct: expressed in transfected cells; host or cells: HEK293
T1 sequence (P48546 22-466): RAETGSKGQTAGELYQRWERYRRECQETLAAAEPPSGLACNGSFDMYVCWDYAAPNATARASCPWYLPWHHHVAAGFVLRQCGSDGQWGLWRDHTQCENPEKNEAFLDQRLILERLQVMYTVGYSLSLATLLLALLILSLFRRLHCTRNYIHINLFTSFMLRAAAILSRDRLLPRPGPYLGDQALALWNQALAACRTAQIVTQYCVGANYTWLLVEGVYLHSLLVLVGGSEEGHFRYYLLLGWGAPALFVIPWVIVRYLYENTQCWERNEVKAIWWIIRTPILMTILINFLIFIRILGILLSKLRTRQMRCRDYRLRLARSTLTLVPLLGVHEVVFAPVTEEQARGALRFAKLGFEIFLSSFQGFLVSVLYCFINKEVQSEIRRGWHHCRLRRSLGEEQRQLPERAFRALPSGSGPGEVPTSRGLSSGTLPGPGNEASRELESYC

Row | Substance | [hGIPR/hGLP1R] EC50 Ratio
1 | Y-Aib-EGT-αMeF(2F)-TSDVSI-αMeL-LD-Orn-K((2-[2-(2-Amino-ethoxy)-ethoxy]-acetyl)2-(γGlu)-CO—(CH2)16—CO2H)AQ-Aib-AFI-(D-Glu)-αMeY-LIEGGPSSGAPPPS-NH2 (YXEGTXTSDVSIXLDXKAQXAFIXXLIEGGPSSGAPPPS; Aib, Orn, αMe residues, lipidated Lys, D-Glu, amide; (2)..(2) Xaa at position 2 is Aib; (6)..(6) Xaa at position 6 is alpha-methyl-Phe(2F); (13)..(13) Xaa at position 13 is alpha-methyl-Leu; (16)..(16) Xaa at position 16 is Orn; MOD_RES (17)..(17) Lys at position 17 is chemically modified by conjugation of the epsilon-amino group of the Lys side chain with (2-[2-(2-amino-ethoxy)-ethoxy]-acetyl)2-(gamma-Glu)-CO-(CH2)16- CO2H; (20)..(20) Xaa at positi) [Peptide 242] | 2.85
2 | Y-Aib-EGTFTSDYSILLDKIAQ-Aib-AFIK((2-[2-(2-Amino-ethoxy)-ethoxy]-acetyl)2-(γGlu)-CO—(CH2)18—CO2H)YLIEGGPSSGAPPPS-NH2 (Y[Aib]EGTFTSDYSILLDKIAQ[Aib]AFIK([AEEA-AEEA-γGlu-C20 diacid])YLIEGGPSSGAPPPS-NH2; N-terminus assumed; SMILES CC[C@H](C)[C@H](NC(=O)[C@H](CCCCN)NC(=O)[C@H](CC(=O)O)NC(=O)[C@H](CC(C)C)NC(=O)[C@H](CC(C)C)NC(=O)[C@@H](NC(=O)[C@H](CO)NC(=O)[C@H](Cc1ccc(O)cc1)NC(=O)[C@H](CC(=O)O)NC(=O)[C@H](CO)NC(=O)[C@@H](NC(=O)[C@H](Cc1ccccc1)NC(=O)[C@@H](NC(=O)CNC(=O)[C@H](CCC(=O)O)NC(=O)C(C)(C)NC(=O)[C@@H](N)Cc1ccc(O)cc1)[C@@H](C)O)[C@@H](C)O)[C@@H](C)CC)C(=O)N[C@@H](C)C(=O)N[C@@H](CCC(N)=O)C(=O)NC(C)(C)C(=O)N[C@@H](C)C(=O)N[C@@H](Cc1ccccc1)C(=O)N[C@H](C(=O)N[C@@H](CCCCNC(=O)COCCOCCNC(=O)COCCOCCNC(=O)CC[C@H](NC(=O)CCCCCCCCCCCCCCCCCCC(=O)O)C(=O)O)C(=O)N[C@@H](Cc1ccc(O)cc1)C(=O)N[C@@H](CC(C)C)C(=O)N[C@H](C(=O)N[C@@H](CCC(=O)O)C(=O)NCC(=O)NCC(=O)N1CCC[C@H]1C(=O)N[C@@H](CO)C(=O)N[C@@H](CO)C(=O)NCC(=O)N[C@@H](C)C(=O)N1CCC[C@H]1C(=O)N1CCC[C@H]1C(=O)N1CCC[C@H]1C(=O)N[C@@H](CO)C(N)=O)[C@@H](C)CC)[C@@H](C)CC) [Peptide 34] | 10.03
3 | Y-Aib-EGT-αMeF(2F)-TSDHSI-αMeL-LD-Dap-K((2-[2-(2-Amino-ethoxy)-ethoxy]-acetyl)2-(γGlu)-CO—(CH2)18—CO2H)AQ-Aib-TFI-(D-Glu)-YLIEGGPSSGAPPPS-NH2 (YXEGTXTSDHSIXLDXKAQXTFIXYLIEGGPSSGAPPPS; Aib, αMeF(2F), αMeL, Dap, D-Glu; lipidated K; amide; (2)..(2) Xaa at position 2 is Aib; (6)..(6) Xaa at position 6 is alpha-methyl-Phe(2F); (13)..(13) Xaa at position 13 is alpha-methyl-Leu; (16)..(16) Xaa at position 16 is Dap; MOD_RES (17)..(17) Lys at position 17 is chemically modified by conjugation of the epsilon-amino group of the Lys side chain with (2-[2-(2-amino-ethoxy)-ethoxy]-acetyl)2-(gamma-Glu)-CO-(CH2)18- CO2H; (20)..(20) Xaa at positi) [Peptide 173] | 4.80
4 | Y-Aib-EGTFTSDYSILLDKK((2-[2-(2-Amino-ethoxy)-ethoxy]-acetyl)2-(γGlu)-CO—(CH2)18—CO2H)AQ-Aib-AFIEYLIEGGPSSG-NH2 (Y[Aib]EGTFTSDYSILLDKK([AEEA-AEEA-γGlu-C20 diacid])AQ[Aib]AFIEYLIEGGPSSG-NH2; N-terminus assumed; SMILES CC[C@H](C)[C@H](NC(=O)[C@H](CC(C)C)NC(=O)[C@H](Cc1ccc(O)cc1)NC(=O)[C@H](CCC(=O)O)NC(=O)[C@@H](NC(=O)[C@H](Cc1ccccc1)NC(=O)[C@H](C)NC(=O)C(C)(C)NC(=O)[C@H](CCC(N)=O)NC(=O)[C@H](C)NC(=O)[C@H](CCCCNC(=O)COCCOCCNC(=O)COCCOCCNC(=O)CC[C@H](NC(=O)CCCCCCCCCCCCCCCCCCC(=O)O)C(=O)O)NC(=O)[C@H](CCCCN)NC(=O)[C@H](CC(=O)O)NC(=O)[C@H](CC(C)C)NC(=O)[C@H](CC(C)C)NC(=O)[C@@H](NC(=O)[C@H](CO)NC(=O)[C@H](Cc1ccc(O)cc1)NC(=O)[C@H](CC(=O)O)NC(=O)[C@H](CO)NC(=O)[C@@H](NC(=O)[C@H](Cc1ccccc1)NC(=O)[C@@H](NC(=O)CNC(=O)[C@H](CCC(=O)O)NC(=O)C(C)(C)NC(=O)[C@@H](N)Cc1ccc(O)cc1)[C@@H](C)O)[C@@H](C)O)[C@@H](C)CC)[C@@H](C)CC)C(=O)N[C@@H](CCC(=O)O)C(=O)NCC(=O)NCC(=O)N1CCC[C@H]1C(=O)N[C@@H](CO)C(=O)N[C@@H](CO)C(=O)NCC(N)=O) [Peptide 50] | 2.90
5 | Y-Aib-EGTFTSDYSI-αMeL-LDTK((2-[2-(2-Amino-ethoxy)-ethoxy]-acetyl)2-(γGlu)-CO—(CH2)18—CO2H)AQ-Aib-AFIEYLIEGG-NH2 (YXEGTFTSDYSIXLDTKAQXAFIEYLIEGG; Aib, αMeL; K lipidated C20 diacid-γGlu-AEEA2; C-terminal amide; (2)..(2) Xaa at position 2 is Aib; (13)..(13) Xaa at position 13 is alpha-methyl-Leu; MOD_RES (17)..(17) Lys at position 17 is chemically modified by conjugation of the epsilon-amino group of the Lys side chain with (2-[2-(2-amino-ethoxy)-ethoxy]-acetyl)2-(gamma-Glu)-CO-(CH2)18- CO2H; (20)..(20) Xaa at position 20 is Aib; MOD_RES (30)..(30) Gly at position 30 is amidated) [Peptide 65] | 4.46
6 | Y-Aib-EGT-αMeF(2F)-TSDYSI-αMeL-LDEK((2-[2-(2-Amino-ethoxy)-ethoxy]-acetyl)2-(γGlu)-CO—(CH2)16—CO2H)AQ-Aib-EFI-(D-Glu)-YLIEGG-NH2 (YXEGTXTSDYSIXLDEKAQXEFIXYLIEGG; Aib, αMe, D-Glu, C18 diacid lipidation, C-amide; (2)..(2) Xaa at position 2 is Aib; (6)..(6) Xaa at position 6 is alpha-methyl-Phe(2F); (13)..(13) Xaa at position 13 is alpha-methyl-Leu; MOD_RES (17)..(17) Lys at position 17 is chemically modified by conjugation of the epsilon-amino group of the Lys side chain with (2-[2-(2-amino-ethoxy)-ethoxy]-acetyl)2-(gamma-Glu)-CO-(CH2)16- CO2H; (20)..(20) Xaa at position 20 is Aib; (24)..(24) Xaa at positi) [Peptide 220] | 4.63
7 | Y-Aib-EGTFTSDYSILLDKIAQ-Aib-AFIEYLIEGGPSSGAPK((2-[2-(2-Amino-ethoxy)-ethoxy]-acetyl)2-(γGlu)-CO—(CH2)18—CO2H)PS-NH2 (Y[Aib]EGTFTSDYSILLDKIAQ[Aib]AFIEYLIEGGPSSGAPK([AEEA-AEEA-γGlu-C20 diacid])PS-NH2; N-terminus assumed; SMILES CC[C@H](C)[C@H](NC(=O)[C@H](CCCCN)NC(=O)[C@H](CC(=O)O)NC(=O)[C@H](CC(C)C)NC(=O)[C@H](CC(C)C)NC(=O)[C@@H](NC(=O)[C@H](CO)NC(=O)[C@H](Cc1ccc(O)cc1)NC(=O)[C@H](CC(=O)O)NC(=O)[C@H](CO)NC(=O)[C@@H](NC(=O)[C@H](Cc1ccccc1)NC(=O)[C@@H](NC(=O)CNC(=O)[C@H](CCC(=O)O)NC(=O)C(C)(C)NC(=O)[C@@H](N)Cc1ccc(O)cc1)[C@@H](C)O)[C@@H](C)O)[C@@H](C)CC)C(=O)N[C@@H](C)C(=O)N[C@@H](CCC(N)=O)C(=O)NC(C)(C)C(=O)N[C@@H](C)C(=O)N[C@@H](Cc1ccccc1)C(=O)N[C@H](C(=O)N[C@@H](CCC(=O)O)C(=O)N[C@@H](Cc1ccc(O)cc1)C(=O)N[C@@H](CC(C)C)C(=O)N[C@H](C(=O)N[C@@H](CCC(=O)O)C(=O)NCC(=O)NCC(=O)N1CCC[C@H]1C(=O)N[C@@H](CO)C(=O)N[C@@H](CO)C(=O)NCC(=O)N[C@@H](C)C(=O)N1CCC[C@H]1C(=O)N[C@@H](CCCCNC(=O)COCCOCCNC(=O)COCCOCCNC(=O)CC[C@H](NC(=O)CCCCCCCCCCCCCCCCCCC(=O)O)C(=O)O)C(=O)N1CCC[C@H]1C(=O)N[C@@H](CO)C(N)=O)[C@@H](C)CC)[C@@H](C)CC) [Peptide 46] | 8.54
